Experimental data published in WO2018007922A2 (dated 2018).

Target: recombinant human TTR F87M/L110M (human, UniProt P02766 21-147)
Test: Biacore SPR, mAb captured on anti-human chip, TTR F87M/L110M as analyte

Kd: 2.09 nM
B1: Hu9D5 H4L1 (antibody, V domains shown)
VH: EVQLVESGGGLVQPGGSLRLSCAASGFTFSSYTMSWVRQAPGKGLEWVSEISNSGDTTYYPDTVKGRFTISRDNAKNSLYLQSNLLRAEDTAVYYCARHYYYGGGYGGWFFDVWGQGTTVTVSS
VL: DIVMTQSPLSLPVTPGEPASISCRSSKSLLHSNGNTYLYWFLQKPGQSPQLLIYRVSNLASGVPDRFSGSGSGTDFTLKISRVEAEDVGVYYCMQHLEYPLTFGQGTKLEIK
notes: not tied by words to the tested antibody; also called humanized 9D5 VHv4/VLv1
